The results in this text go back to paper PMC6249844 (Molecular Biology of the Cell, 2018).

The target in the experiment is RFP-tagged cargo selection complex (Vps35, Vps26, Vps29-RFP) (S. cerevisiae, UniProt P34110;P40335;P38759). Kind of experiment: recruitment to giant unilamellar vesicles.
RFP-tagged cargo selection complex (Vps35, Vps26, Vps29-RFP), sequence (P34110 whole entry, chain 1 of 3): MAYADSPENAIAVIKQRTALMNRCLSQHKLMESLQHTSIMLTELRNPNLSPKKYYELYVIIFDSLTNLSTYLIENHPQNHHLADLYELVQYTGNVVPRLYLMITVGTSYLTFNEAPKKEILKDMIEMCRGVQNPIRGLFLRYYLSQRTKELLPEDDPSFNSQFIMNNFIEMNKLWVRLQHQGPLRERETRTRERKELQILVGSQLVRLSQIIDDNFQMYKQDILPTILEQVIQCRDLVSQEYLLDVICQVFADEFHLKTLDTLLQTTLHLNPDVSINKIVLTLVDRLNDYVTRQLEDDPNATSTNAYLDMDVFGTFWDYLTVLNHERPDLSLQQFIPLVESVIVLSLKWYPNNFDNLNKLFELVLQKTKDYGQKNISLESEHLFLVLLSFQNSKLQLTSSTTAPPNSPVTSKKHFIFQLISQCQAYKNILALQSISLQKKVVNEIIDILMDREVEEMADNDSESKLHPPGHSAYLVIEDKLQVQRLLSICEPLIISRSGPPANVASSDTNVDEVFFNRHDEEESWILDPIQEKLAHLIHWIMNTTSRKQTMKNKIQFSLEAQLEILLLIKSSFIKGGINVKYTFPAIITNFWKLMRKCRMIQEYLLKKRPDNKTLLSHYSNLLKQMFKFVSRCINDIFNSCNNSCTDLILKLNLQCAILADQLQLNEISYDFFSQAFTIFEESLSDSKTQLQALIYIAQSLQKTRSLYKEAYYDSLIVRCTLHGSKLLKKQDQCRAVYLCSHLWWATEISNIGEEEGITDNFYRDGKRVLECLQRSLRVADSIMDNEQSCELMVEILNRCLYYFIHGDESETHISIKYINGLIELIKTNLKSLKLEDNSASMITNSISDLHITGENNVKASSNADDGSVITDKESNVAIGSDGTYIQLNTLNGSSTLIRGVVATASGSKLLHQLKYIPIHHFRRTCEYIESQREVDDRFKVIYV
RFP-tagged cargo selection complex (Vps35, Vps26, Vps29-RFP), sequence (P40335 whole entry, chain 2 of 3): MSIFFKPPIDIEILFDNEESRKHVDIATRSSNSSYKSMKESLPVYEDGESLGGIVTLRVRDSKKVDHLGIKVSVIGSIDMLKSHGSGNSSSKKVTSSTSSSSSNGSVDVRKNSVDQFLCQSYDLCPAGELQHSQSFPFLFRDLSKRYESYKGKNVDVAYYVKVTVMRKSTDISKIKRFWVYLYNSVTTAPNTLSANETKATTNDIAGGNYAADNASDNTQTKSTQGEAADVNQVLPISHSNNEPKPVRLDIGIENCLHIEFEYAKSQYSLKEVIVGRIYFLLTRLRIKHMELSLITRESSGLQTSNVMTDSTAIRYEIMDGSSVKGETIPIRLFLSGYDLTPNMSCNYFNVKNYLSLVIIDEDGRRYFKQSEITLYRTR
RFP-tagged cargo selection complex (Vps35, Vps26, Vps29-RFP), sequence (P38759 whole entry, chain 3 of 3): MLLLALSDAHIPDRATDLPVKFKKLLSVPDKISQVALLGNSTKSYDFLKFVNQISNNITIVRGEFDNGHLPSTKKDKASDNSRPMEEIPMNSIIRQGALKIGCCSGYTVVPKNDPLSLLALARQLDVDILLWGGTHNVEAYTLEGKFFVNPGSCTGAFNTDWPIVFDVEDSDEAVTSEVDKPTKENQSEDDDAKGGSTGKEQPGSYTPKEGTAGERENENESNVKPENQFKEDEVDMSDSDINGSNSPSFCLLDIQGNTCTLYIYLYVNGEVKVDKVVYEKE

B1: Snx3-mGFP (His-SUMO-Snx3-mGFP) (natural protein)
chain: MPREFKSFGSTEKSLLSKGHGEPSYSEIYAEPENFLEIEVHNPKTHIPNGMDSKGMFTDYEIICRTNLPSFHKRVSKVRRRYSDFEFFRKCLIKEISMLNHPKVMVPHLPGKILLSNRFSNEVIEERRQGLNTWMQSVAGHPLLQSGSKVLVRFIEAEKFVG
On to B1, for which the binding result was “binds”.

B2: GFP-tagged SNX-BAR complex (Vps5-Vps17 heterodimer with Vps17-GFP) (complex)
chain 1: MDYEDNLEAPVWDELNHEGDKTQSLVSNSIESIGQISTNEERKDNELLETTASFADKIDLDSAPEWKDPGLSVAGNPQLEEHDNSKADDLINSLAPEQDPIADLKNSTTQFIATRESGGALFTGNANSPLVFDDTIYDANTSPNTSKSISGRRSGKPRILFDSARAQRNSKRNHSLKAKRTTASDDTIKTPFTDPLKKAEKENEFVEEPLDDRNERRENNEGKFTASVEKNILEQVDRPLYNLPQTGANISSPAEVEENSEKFGKTKIGSKVPPTEKAVAFKVEVKDPVKVGELTSIHVEYTVISESSLLELKYAQVSRRYRDFRWLYRQLQNNHWGKVIPPPPEKQSVGSFKENFIENRRFQMESMLKKICQDPVLQKDKDFLLFLTSDDFSSESKKRAFLTGSGAINDSNDLSEVRISEIQLLGAEDAAEVLKNGGIDAESHKGFMSISFSSLPKYNEADEFFIEKKQKIDELEDNLKKLSKSLEMVDTSRNTLAASTEEFSSMVETLASLNVSEPNSELLNNFADVHKSIKSSLERSSLQETLTMGVMLDDYIRSLASVKAIFNQRSKLGYFLVVIENDMNKKHSQLGKLGQNIHSEKFREMRKEFQTLERRYNLTKKQWQAVGDKIKDEFQGFSTDKIREFRNGMEISLEAAIESQKECIELWETFYQTNL
chain 2: MTSAVPYDPYDDLDNNPFAEPQEEDSEPAATTTDGSSSMSEERVGTEQTAASVQDNGTANNIQNGLGEEGNATRSKTSNEHNENQQPSQPSERVILPERSDEKKKYTLLAKVTGLERFGSATGKKENPTIIFDCSTNLPTFRKQQYKNVKKSYEEFHQLFKYLNVAIQESFVPTLPSAYTTFGINSEEDRMKVTRNFQLWFNRLSQDPLIIRNEEVAFFIESDFNTYTPINKSKSLASGLKRKTLKQLAPPYDEITELAEFRPLVKSIYVVSQSLQEKLLRVSRNRKMMVQEENAFGQDFVNLDEHNKLYRRYGKILTAVGDIDSIIATMDMATLYDGLEWIVRDAYAVKEALTNRHFIMRNLVQAQQNSKAKQEQARRFRSRRDINPMKIDEALRQLKAAAKNEQVLTLKLQRITSNMIIERKQWISWYEEWIRSSIKEFTLRKIEYERKKLTLLERVRSDIRKADENGGLSRLGRHAVSNNNSDTSQTLKGDSWTGESNRKSQIPINKIAHTEFDDELFTEDDGYNSQDSDTTSLNARHAASLLGMSTK
Take B2: the binding result is given as “binds”.

B3: SNX-BAR complex without GFP tag (Vps5-Vps17 heterodimer) (complex)
chain 1: MDYEDNLEAPVWDELNHEGDKTQSLVSNSIESIGQISTNEERKDNELLETTASFADKIDLDSAPEWKDPGLSVAGNPQLEEHDNSKADDLINSLAPEQDPIADLKNSTTQFIATRESGGALFTGNANSPLVFDDTIYDANTSPNTSKSISGRRSGKPRILFDSARAQRNSKRNHSLKAKRTTASDDTIKTPFTDPLKKAEKENEFVEEPLDDRNERRENNEGKFTASVEKNILEQVDRPLYNLPQTGANISSPAEVEENSEKFGKTKIGSKVPPTEKAVAFKVEVKDPVKVGELTSIHVEYTVISESSLLELKYAQVSRRYRDFRWLYRQLQNNHWGKVIPPPPEKQSVGSFKENFIENRRFQMESMLKKICQDPVLQKDKDFLLFLTSDDFSSESKKRAFLTGSGAINDSNDLSEVRISEIQLLGAEDAAEVLKNGGIDAESHKGFMSISFSSLPKYNEADEFFIEKKQKIDELEDNLKKLSKSLEMVDTSRNTLAASTEEFSSMVETLASLNVSEPNSELLNNFADVHKSIKSSLERSSLQETLTMGVMLDDYIRSLASVKAIFNQRSKLGYFLVVIENDMNKKHSQLGKLGQNIHSEKFREMRKEFQTLERRYNLTKKQWQAVGDKIKDEFQGFSTDKIREFRNGMEISLEAAIESQKECIELWETFYQTNL
chain 2: MTSAVPYDPYDDLDNNPFAEPQEEDSEPAATTTDGSSSMSEERVGTEQTAASVQDNGTANNIQNGLGEEGNATRSKTSNEHNENQQPSQPSERVILPERSDEKKKYTLLAKVTGLERFGSATGKKENPTIIFDCSTNLPTFRKQQYKNVKKSYEEFHQLFKYLNVAIQESFVPTLPSAYTTFGINSEEDRMKVTRNFQLWFNRLSQDPLIIRNEEVAFFIESDFNTYTPINKSKSLASGLKRKTLKQLAPPYDEITELAEFRPLVKSIYVVSQSLQEKLLRVSRNRKMMVQEENAFGQDFVNLDEHNKLYRRYGKILTAVGDIDSIIATMDMATLYDGLEWIVRDAYAVKEALTNRHFIMRNLVQAQQNSKAKQEQARRFRSRRDINPMKIDEALRQLKAAAKNEQVLTLKLQRITSNMIIERKQWISWYEEWIRSSIKEFTLRKIEYERKKLTLLERVRSDIRKADENGGLSRLGRHAVSNNNSDTSQTLKGDSWTGESNRKSQIPINKIAHTEFDDELFTEDDGYNSQDSDTTSLNARHAASLLGMSTK
For B3, the binding result is given as “binds”.
